Entries after “also recorded” stand apart in the source; their conditions may differ.
Legend:
[1] = tested on: chick chorioallantoic membrane blood vessels; assay: Proliferation of blood vessels on chick chorioallantoic membrane; type: in vivo
Experimental: In this example, a proliferation assay on chick chorioallantoic membrane blood vessels was carried out to detect the inhibition of F56 to angiogenesis.
The experiment was carried out according to a method described by Fu Shengfa et al. (Fu Shengfa, Lu Yinglin and Zhang Chaoshan: Technique of detecting the effects of vascular growth factor with chorioallantoic membrane of fertilized chicken eggs. Chin Mili. Acad. Medi. Scie. 1993, 17:294-97”). Particularly, fresh inseminated chicken eggs were soaked in 0.1% benzalkonium bromide solution for 2 minutes at 38° C., and incubated in an incubator at 37.5° C., 60-70% humidity for 3 days. Then, the eggs were stripped and cultured on a petri dish. When the allantoic membrane grew to about 1cm^2, the different groups (5 chick embryos per group) were treated with the following agents. VEGF165 (2 μg/L), DHFR (negative control) or 18 μl F56 solution (0.8 μg/μl) was dropped onto a glass-fiber filter membrane (Φ5 mm). The membrane was placed on the distal end (in relation to the heart of the embryo) of the chorioallantoic membrane. The agents were administered once in the morning and once in the evening for 2 days. The results were observed and recorded by photography. The experiment was repeated twice (Kodak 100, exposed for 3 s).

[2] = tested on: human umbilical cord vein-derived endothelial cells (HUVECs); assay: VEGF-stimulated proliferation of HUVECs (3H-TdR incorporation); type: cell-based; conditions: 50, 100, 200, 300 μmol/L with VEGF165, 48 hours; FIG. 2
Experimental: A sample of human umbilical cord (obtained from Beijing Gynecological and Obstetric Hospital) was digested by 0.1% collagenase II (purchased from GIBCO BRL Corporation), and centrifuged at 1000 rpm for 10 minutes to collect the human umbilical cord vein-derived endothelial cells (HUVECs). The cells were suspended in 20% FCS/RPMI 1640 (purchased from GIBCO BRL Corporation), and transferred to a plastic culture flask and cultured in a incubator (37° C., 5% CO2) for 2 days. Then, the cultured HUVECs were digested with 0.04% trypsin-EDTA, and inoculated into a 24-well plate at 3×10^4 cells/well. After 24 hours' incubation, the cells were incubated for another 24 hours in new medium 2% FCS/RPIM 1640. VEGF165 (product of Sigma Corporation) was added either independently or as a mixture with peptide F56 or F90 of different concentrations (50, 100, 200, 300 μmol/L). 4 parallel wells were used for each group. The cells were incubated for 48 hours. Then, ^3H-TdR(1 μci/ml) was added and the cells were incubated for another 8 hours. The cells were collected to a glass-fiber filter membrane. The cpm value was detected according to conventional methods. The same experiment was repeated for 3 times.

[3] = tested on: human breast cancer cells; assay: Metastasis model of breast cancer in SCID mice; type: in vivo
Experimental: In order to observe the inhibitory activity of the peptides of the present invention to cancer metastasis, a metastasis model of breast cancer in SCID mice as described by Li Zhihong at al. (Transplant of human breast cancer in nude mice. Natl. Med J Chin. Vol.80 (11), 2000) was used to determine the function of F56. Briefly, human breast cancer cells were inoculated under the fat pad in the breast of SCID mice. Peptide F56 (0.5 mmol/L) was injected topically (60 μl per mouse per time) on the next day and every other day for 10 times in total. After 8 weeks, the mice were put to dead. The tumors were taken out and weighted. The whole lung was taken out, fixed and sliced with maximal cross-section and dyed by HE. The number of metastatic foci was counted.

[4] = tested on: vascular endothelial cells; assay: ELISA test of binding to fixed vascular endothelial cells; conditions: for binding to endothelial cells (in words): ELISA; for ELISA (OD492 nm), EC: glutaraldehyde-fixed vascular endothelial cells, DHFR-specific monoclonal antibody
Experimental: (§1) The specificity of the binding of the fusion proteins DHFR-F56 and DHFR-F90 to receptor Flt-1 was tested by ELISA in the present example.
(§2) Particularly, a 96-well plate was coated with soluble receptors, sFlt-1, sKDR (5 mg/L, 50 μl/well) [Song Shumei, Shou Chengchao: Molecular cloning and its expression of vascular endothelia growth factor receptor KDR. Chin J. Biochem. Mol. Bio. 1998, 14 (1): 57-61; An Ping, Dong Zhewei and Shou Chengchao: Molecular cloning and its bio-activity of soluble VEGF receptor expressed in bacterial. Chin J. Biochem. Mol. Bio. 2000, 16 (1): 62-66]. Alternatively, the vascular endothelial cells in a 96-well plate were fixed by pre-cooled 0.125% glutaraldehyde solution. DHFR, DHFR-F56 or DHFR-F90 was added to the plate after blocking. An ELISA assay was carried out using a DHFR-specific monoclonal antibody according to conventional method. The ELISA assay was repeated for 3 times.

[5] = target: T1, soluble receptor of VEGF, Flt-1 (sFlt-1) (Homo sapiens, UniProt P17948); assay: 125I-VEGF competitive binding assay on coated sFlt-1; conditions: 1, 5, 10, 15, 20 μg/ml; 125I-VEGF 2 μg/L; FIG. 1
T1 construct: coated overnight at 4° C. by 0.5 mg/L soluble receptor of VEGF, Flt-1 (sFlt-1)
T1 sequence (P17948 27-758 limits assumed, species assumed): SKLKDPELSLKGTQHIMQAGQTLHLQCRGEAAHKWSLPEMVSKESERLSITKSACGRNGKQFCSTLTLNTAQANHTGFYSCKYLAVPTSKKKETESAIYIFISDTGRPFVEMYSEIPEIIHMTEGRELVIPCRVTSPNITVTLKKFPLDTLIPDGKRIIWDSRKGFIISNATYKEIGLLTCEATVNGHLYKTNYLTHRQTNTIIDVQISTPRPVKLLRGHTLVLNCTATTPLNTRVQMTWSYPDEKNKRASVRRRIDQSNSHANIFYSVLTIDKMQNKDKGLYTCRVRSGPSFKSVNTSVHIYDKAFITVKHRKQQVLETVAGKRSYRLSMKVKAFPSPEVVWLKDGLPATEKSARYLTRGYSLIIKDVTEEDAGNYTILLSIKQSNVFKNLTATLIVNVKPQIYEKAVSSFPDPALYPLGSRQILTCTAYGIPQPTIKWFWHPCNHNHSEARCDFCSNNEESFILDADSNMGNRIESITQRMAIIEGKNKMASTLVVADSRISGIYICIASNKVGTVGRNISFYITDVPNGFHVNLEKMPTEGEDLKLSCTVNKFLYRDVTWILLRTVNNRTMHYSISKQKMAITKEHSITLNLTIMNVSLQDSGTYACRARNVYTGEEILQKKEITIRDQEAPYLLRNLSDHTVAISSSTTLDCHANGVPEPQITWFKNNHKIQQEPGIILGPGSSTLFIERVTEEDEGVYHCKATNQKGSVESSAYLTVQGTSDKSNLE
Experimental: In order to detect the activity of DHFR-F56 blocking VEGF binding to sFlt-1, a binding assay was carried out using ^125I-VEGF (purchased from Life Technology Inc.).
The experiment was carried out according to a method substantially as described by Tanaka, K., et al (Characterization of the extracellular domain in vascular endothelial growth factor receptor-1 (Flt-1 tyrosine kinase). Jpn J Cancer Res. 1997, 88:867-876). Briefly, a 96-well plate was coated overnight at 4° C. by 0.5 mg/L soluble receptor of VEGF, Flt-1 (sFlt-1). The coating solution was 0.01 mol/L phosphate buffer (pH 6.2). Then, the plate was rinsed with a washing solution (0.9% NaCl, 0.01 mol/L, pH6.2) for 3 times. 250 μl blocking buffer (0.3% BSA, 25 mmol/L HEPES, DMEM, pH7.6) was added into each well for 3 hours at room temperature. DHFR-F56 of different concentrations (1, 5, 10, 15, 20 μg/ml) (DHFR of different concentrations for the control group) and ^125I-VEGF (purchased from Life Technology Inc.) of fixed concentration (2 μg/L, […]) were added to the wells. 2 parallel wells were used for each concentration. The binding reaction underwent for 1 hour at room temperature. The plate was rinsed 4 times with the binding buffer. […] The cpm value was determined by a Wallac co liquid-scintillation counter after the solid residue had been dissolved.

[6] = target: T2, sKDR (Homo sapiens, UniProt P35968); assay: ELISA test of binding specificity to soluble receptor sKDR; conditions: for reaction with KDR (in words): ELISA; for ELISA (OD492 nm), SKDR: plate coated with sKDR 5 mg/L, detection with DHFR-specific monoclonal antibody
T2 construct: made in house
T2 sequence (P35968 20-764 limits assumed): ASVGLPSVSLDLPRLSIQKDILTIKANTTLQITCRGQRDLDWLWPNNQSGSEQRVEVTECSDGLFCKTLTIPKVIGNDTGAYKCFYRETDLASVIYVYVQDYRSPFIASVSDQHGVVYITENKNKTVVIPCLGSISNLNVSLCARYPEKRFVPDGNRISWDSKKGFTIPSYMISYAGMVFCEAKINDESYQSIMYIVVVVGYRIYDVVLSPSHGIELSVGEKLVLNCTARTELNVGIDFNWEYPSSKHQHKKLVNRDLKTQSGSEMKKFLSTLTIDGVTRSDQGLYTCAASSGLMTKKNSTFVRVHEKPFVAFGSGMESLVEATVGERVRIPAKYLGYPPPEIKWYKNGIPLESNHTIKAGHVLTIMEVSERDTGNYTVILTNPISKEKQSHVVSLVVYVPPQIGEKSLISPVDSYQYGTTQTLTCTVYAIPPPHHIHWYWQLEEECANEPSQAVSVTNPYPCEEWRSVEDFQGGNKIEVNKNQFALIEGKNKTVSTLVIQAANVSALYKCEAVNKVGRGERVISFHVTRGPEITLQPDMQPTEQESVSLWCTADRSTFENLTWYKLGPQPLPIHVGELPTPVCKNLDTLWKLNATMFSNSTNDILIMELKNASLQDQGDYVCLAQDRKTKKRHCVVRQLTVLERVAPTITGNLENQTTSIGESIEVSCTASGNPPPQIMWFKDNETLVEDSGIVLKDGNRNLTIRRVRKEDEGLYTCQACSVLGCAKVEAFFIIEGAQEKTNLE
Experimental: as §1, §2

[7] = tested on: MGC803 cells (a human gastric carcinoma cell line); assay: Tumor inhibition test, MGC803 implanted in Balb/c nude mice; type: in vivo; conditions: 150 μg/100 μl intraperitoneally every other day for 10 times; for growth of human gastric carcinoma MGC803 cells in Balb/c nude mice: p<0.05 vs DHFR control
Experimental: To testify whether DHFR-F56 and DHFR-F90 can inhibit tumor growth on the basis of anti-angiogenesis, a tumor inhibition test on Balb/c nude mice was performed.
MGC803 cells (a human gastric carcinoma cell line) was subcutaneously implanted on the right buttock of eight 5-week aged nude mice (purchased from the Animal Center of the Chinese Academy of Medical Sciences) (2×10^6 cells/0.1 ml/each mouse). On the fifth day after the implantation, the nude mice were grouped at random into […] each of which included 4 mice. DHFR (150 μg/100 μl per time), DHFR-F56 or DHFR-F90 (150 μg/100 μl per time) was injected intraperitoneally every other day for 10 times. […] The major and minor axes of the tumors were measured by vernier caliper every three days during the observation period. The volume of the tumor was calculated according to the formula of ½×major axis×minor axis^2. After the 30 days, the nude mice were put to dead by neck-breaking. The tumors were weighted and analyzed statistically.

[8] = target: T3, sFlt-1 (Homo sapiens, UniProt P17948); assay: ELISA test of binding specificity to soluble receptor sFlt-1; conditions: for binding to Flt-1 (in words): ELISA; for ELISA (OD492 nm), SFlt-1: plate coated with sFlt-1 5 mg/L, detection with DHFR-specific monoclonal antibody
T3 construct: made in house
T3 sequence (P17948 27-758 limits assumed, species assumed): as the sequence (P17948 27-758 limits assumed, species assumed) above
Experimental: as §1, §2

[9] = on filter membrane, twice daily for 2 days, FIG. 3
[10] = 0.5 mmol/L 60 μl topically, 10 times
[11] = lung, 0.5 mmol/L 60 μl topically, 10 times, after 8 weeks

reaction with KDR (in words) [6] | ELISA (OD492 nm), SKDR [6] | binding to Flt-1 (in words) [8] | ELISA (OD492 nm), SFlt-1 [8] | Molecule | inhibition to the proliferation of umbilical cord vein-derived endothelial cells [2] | effect on chick chorioallantoic membrane blood vessels [1, 9] | binding to endothelial cells (in words) [4] | ELISA (OD492 nm), EC [4] | binding of 125I-VEGF to coated sFlt-1 [5] | growth of human gastric carcinoma MGC803 cells in Balb/c nude mice [7] | also measured
– | – | – | – | VEGF [reference compound] | – | – | – | – | – | – | effect on chick chorioallantoic membrane blood vessels ([1]; in vivo): can promote the proliferation; also recorded: stimulated the blood vessels to proliferate significantly
– | – | – | – | H2N-Trp-His-Asp-Pro-Thr-Pro-Trp-Trp-Ser-Trp-Glu-Ile-COOH (H-WHDPTPWWSWEI-OH) [Peptide F90] | no significant inhibition | derangeable in distribution and atrophic | – | – | – | – | –
– | – | – | – | H2N-Trp-His-Ser-Asp-Met-Glu-Trp-Trp-Tyr-Leu-Leu-Gly-COOH (H-WHSDMEWWYLLG-OH) [Peptide F56] | no significant inhibition | rupture of blood vessels and bleeding in addition to blood vessel atrophy; also recorded: derangeable in distribution and atrophic | – | – | – | – | cancer metastasis to lung (in words) [3, 10]: significantly inhibit cancer metastasis to lung; tumor growth on the injection sites (in words) [3, 10]: inhibition of tumor growth on the injection sites; Number of metastatic foci in each mouse, mouse 1 [3, 11]: 0; Number of metastatic foci in each mouse, mouse 2 [3, 11]: 0; Number of metastatic foci in each mouse, mouse 3 [3, 11]: 1; Number of metastatic foci in each mouse, mouse 4 [3, 11]: 2; Number of metastatic foci in each mouse, mouse 5 [3, 11]: 2; Mean number of metastatic foci ([3]; lung, 5 mice, after 8 weeks): 1.0; Total number of metastatic foci ([3]; lung, 5 mice, after 8 weeks): 5; Metastasis inhibition (%) ([3]; lung, versus solvent, after 8 weeks): 70.5%
no notable reaction | 0.081 | can bind | 0.529 | DHFR-F56: fusion protein composed of peptide F56 and dihydrofolate reductase, expressed in E. coli M15 (protein) MVRPLNCIVAVSQNMGIGKNGDLPWPPLRNEFKYFQRMTTTSSVEGKQNLVIMGRKTWFSIPEKNRPLKDRINIVLSRELKEPPRGAHFLAKSLDDALRLIEQPELASKVDMVWIVGGSSVYQEAMNQPGHLRLFVTRIMQEFESDTFFPEIDLGKYKLLPEYPGVLSEVQEEKGIKYKFEVYEKKWHSDMEWWYLLG | – | – | can bind | 0.477 | decreases along with the increase of the concentration of DHFR-F56 | can inhibit the growth | necrosis of tumor ([7]; FIG. 4): result in necrosis of tumor
no notable reaction | 0.074 | can bind | 0.415 | DHFR-F90: fusion protein composed of peptide F90 and dihydrofolate reductase, expressed in E. coli M15 (protein) MVRPLNCIVAVSQNMGIGKNGDLPWPPLRNEFKYFQRMTTTSSVEGKQNLVIMGRKTWFSIPEKNRPLKDRINIVLSRELKEPPRGAHFLAKSLDDALRLIEQPELASKVDMVWIVGGSSVYQEAMNQPGHLRLFVTRIMQEFESDTFFPEIDLGKYKLLPEYPGVLSEVQEEKGIKYKFEVYEKKWHDPTPWWSWEI | – | – | can bind | 0.384 | – | can inhibit the growth | –
no reaction | 0.074 | no reaction | 0.088 | dihydrofolate reductase (protein, dihydrofolate reductase, negative control protein) MVRPLNCIVAVSQNMGIGKNGDLPWPPLRNEFKYFQRMTTTSSVEGKQNLVIMGRKTWFSIPEKNRPLKDRINIVLSRELKEPPRGAHFLAKSLDDALRLIEQPELASKVDMVWIVGGSSVYQEAMNQPGHLRLFVTRIMQEFESDTFFPEIDLGKYKLLPEYPGVLSEVQEEKGIKYKFEVYEKK | – | no notable effect | no reaction | 0.080 | no notable effect | – | –

— patent US7250395B2, “Antagonist peptides to VEGF receptor Flt-1” (Beijing Institute for Cancer Research, priority 2001, dated 2007)
